This is an account of results in US20100172914A1 (MAYO FOUNDATION FOR MEDICAL EDUCATION AND RESEARCH, published 2010).

This assay addresses T1, TRAIL R1-Fc fusion protein (UniProt O00220 24-239, limits assumed).
T1 construct: The construct is not described beyond its name; not shown: Fc portion
Put plainly: immunoprecipitation with receptor-Fc from lysates of HA-TRAIL-s transfected 293T cells, Western blot. (In general: Immunoblotting shows a protein as a band on a membrane.)

T1 sequence (O00220 24-239 limits assumed): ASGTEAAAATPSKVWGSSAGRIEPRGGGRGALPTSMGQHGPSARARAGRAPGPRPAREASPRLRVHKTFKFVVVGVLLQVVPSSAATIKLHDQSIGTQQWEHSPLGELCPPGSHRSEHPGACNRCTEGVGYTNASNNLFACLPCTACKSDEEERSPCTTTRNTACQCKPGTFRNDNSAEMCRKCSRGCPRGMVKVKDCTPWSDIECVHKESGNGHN

B1: HA-tagged TRAIL-s (ligand)
chain: MAMMEVQGGPSLGQTCVLIVIFTVLLQSLCVAVTYVYFTNELKQMQDKYSKSGIACFLKEDDSYWDPNDEESMNSPCWQVKWQLRQLVRKTPRMKRLWAAK
notes: also called HA-TRAIL-s; not shown: HA tag of the HA-pcDNA3 vector
On to B1, for which the binding result is given as “no binding”.
